According to paper PMC10572602, “Molecular Mechanism of STIL Coiled-Coil Domain Oligomerization” (International Journal of Molecular Sciences, 2023):
No end group written: not given here.

Tests used:
[1] = biological target: the molecule itself; assay: AUC; sedimentation velocity, 10 µM peptide, c(s) distribution; 20 °C, 25 mM sodium phosphate pH 6.8, ionic strength 154 mM (NaCl)
[2] = biological target: the molecule itself; assay: AUC; sedimentation equilibrium, starting concentrations 5, 10 and 20 µM, unlabelled peptide, no DMSO; 20 °C, sodium phosphate pH 6.8 with NaCl; fitted to a single ideal species (N) and, for the WT, to a dimer-tetramer model (apparent KD: tetramer to dimers)
[3] = biological target: the molecule itself; assay: AUC; sedimentation velocity, 100 µM peptide, c(s) distribution; 20 °C, sodium phosphate pH 6.8 with NaCl

B1: STIL CCD_(718–749) A722L Q729L (peptide)
peptide: LSPDLYRFLTELDRQLRLLQAQIQRLLEAQSL-NH2
notes: STIL coiled-coil domain, residues 718-749, with A722L and Q729L; also called double mutant; source: synthetic peptide (Fmoc-SPPS on rink amide, RP-HPLC purified)
stoichiometry N [1]: 4.22
stoichiometry N [2]: 3.24 ± 0.03
stoichiometry N [3]: 4

B2: STIL CCD_(718–749) A722L (peptide)
peptide: LSPDLYRFLTEQDRQLRLLQAQIQRLLEAQSL-NH2
notes: STIL coiled-coil domain, residues 718-749, with A722L; source: synthetic peptide (Fmoc-SPPS on rink amide, RP-HPLC purified)
stoichiometry N [1]: 3.92
stoichiometry N [2]: 3.51 ± 0.02
stoichiometry N [3]: 4

B3: STIL CCD_(718–749) Q729L (peptide)
peptide: LSPDAYRFLTELDRQLRLLQAQIQRLLEAQSL-NH2
notes: STIL coiled-coil domain, residues 718-749, with Q729L; also called STIL CCD Q729L; source: synthetic peptide (Fmoc-SPPS on rink amide, RP-HPLC purified)
stoichiometry N [1]: 3.56
stoichiometry N [2]: 3.47 ± 0.05
stoichiometry N [3]: 4
